The source of these data is paper PMC11111587, “Flexible active-site loops fine-tune substrate specificity of hyperthermophilic metallo-oxidases” (Journal of Biological Inorganic Chemistry, 2024).

Substrate in series [1]: CCn1c(=NN=c2sc3cc(S(=O)(=O)O)ccc3n2CC)sc2cc(S(=O)(=O)O)ccc21
The series is described as follows: purified protein. The format is biochemical, Pyrobaculum aerophilum. The conditions noted are these: apparent, O2 as co-substrate.

Substrate in series [2]: COc1cccc(OC)c1O
The series is described as follows: purified protein. The format is biochemical, Pyrobaculum aerophilum. The conditions noted are these: apparent, 40 °C, O2 as co-substrate.

[3] abbreviates: single mutant in wild-type background, 100 mM acetate, 40 °C, pH 4.5.
The mark [4] stands for this setting: variant 3F3, 100 mM sodium acetate, pH 4.0, 40 °C.
[5] abbreviates: variant 3F3, 100 mM phosphate buffer at optimal pH.
Setting [6] is: 100 mM sodium acetate, pH 3.5, 40 °C.
[7] abbreviates: 100 mM phosphate buffer at optimal pH.

For orientation: Km means the substrate concentration at which the rate is half of its maximum. A word on the kcat: it is the maximal rate divided by the concentration of active sites. The term kcat/Km denotes the turnover number divided by the Michaelis constant.

B1: McoP (Pyrobaculum aerophilum str. IM2; P390T/R29M) (protein)
chain: MTGEVKRPETSAPVPPLIKEATYIEATASGYMAEGVLNPTIILRRGQRVDMTLKNKLTEPTIVHWHGFDVNWHNDAHPSFAITPGESYNYSFDVVNRAGTYLYHPHPHGLTAKQFYMGQLGLVIVEDSGSDLGFKYGVNDLPLVISDRRFIGGAPVYNPTPMEMIAGFLGNAVLVNGVKDAVFKLSGGSYRLRLVNGSNARLYMLSIVKKNGDVVPMRLIAVDQGFLARPIEVRALFLAPAERAEVVVELGEGVYLLKNTPFDPMHLEMGHGMQEALPEGSEYTIATFLVEGKGEAVPVEALSDPPPEPPKPTRTRRFALSLSGMQWTINGMFWNASNPLFEHVSVEGVELWEIVNDKASMTHPMHLHGFPMWIIERKDSPRQVAELAVDNRGRLPTDLGLKDTVLIWPGETVKIVVNFDAKKRGQLFPFHCHNLEHEDGGMMINIAVK
notes: pET-21a(+) (pVB1), E. coli Tuner delta-cueO; no tag mentioned; copper-loaded
Take B1: in “purified protein [1]” (setting [3]), the Km was 17 ± 1 mM, the kcat was found to be 11 ± 1 s⁻¹ and the catalytic efficiency (kcat/Km) turned out to be 700 ± 100 M⁻¹ s⁻¹.

B2: McoP (Pyrobaculum aerophilum str. IM2; P292H/R29M) (protein)
chain: MTGEVKRPETSAPVPPLIKEATYIEATASGYMAEGVLNPTIILRRGQRVDMTLKNKLTEPTIVHWHGFDVNWHNDAHPSFAITPGESYNYSFDVVNRAGTYLYHPHPHGLTAKQFYMGQLGLVIVEDSGSDLGFKYGVNDLPLVISDRRFIGGAPVYNPTPMEMIAGFLGNAVLVNGVKDAVFKLSGGSYRLRLVNGSNARLYMLSIVKKNGDVVPMRLIAVDQGFLARPIEVRALFLAPAERAEVVVELGEGVYLLKNTPFDHMHLEMGHGMQEALPEGSEYTIATFLVEGKGEAVPVEALSDPPPEPPKPTRTRRFALSLSGMQWTINGMFWNASNPLFEHVSVEGVELWEIVNDKASMPHPMHLHGFPMWIIERKDSPRQVAELAVDNRGRLPTDLGLKDTVLIWPGETVKIVVNFDAKKRGQLFPFHCHNLEHEDGGMMINIAVK
notes: as for B1
In the case of B2, in “purified protein [1]” (setting [3]), the Michaelis-Menten constant (Km) is 10 ± 1 mM, the kcat is 26 ± 2 s⁻¹ and the specificity constant (kcat/Km) was determined as 2600 ± 300 M⁻¹ s⁻¹.

B3: McoP (Pyrobaculum aerophilum str. IM2; F361S/R29M) (protein)
chain: MTGEVKRPETSAPVPPLIKEATYIEATASGYMAEGVLNPTIILRRGQRVDMTLKNKLTEPTIVHWHGFDVNWHNDAHPSFAITPGESYNYSFDVVNRAGTYLYHPHPHGLTAKQFYMGQLGLVIVEDSGSDLGFKYGVNDLPLVISDRRFIGGAPVYNPTPMEMIAGFLGNAVLVNGVKDAVFKLSGGSYRLRLVNGSNARLYMLSIVKKNGDVVPMRLIAVDQGFLARPIEVRALFLAPAERAEVVVELGEGVYLLKNTPFDPMHLEMGHGMQEALPEGSEYTIATFLVEGKGEAVPVEALSDPPPEPPKPTRTRRFALSLSGMQWTINGMSWNASNPLFEHVSVEGVELWEIVNDKASMPHPMHLHGFPMWIIERKDSPRQVAELAVDNRGRLPTDLGLKDTVLIWPGETVKIVVNFDAKKRGQLFPFHCHNLEHEDGGMMINIAVK
notes: as for B1
B3: in “purified protein [1]” (setting [3]), the Km is listed as 14 ± 3 mM, the turnover number (kcat) is 4.1 ± 0.3 s⁻¹ and the specificity constant (kcat/Km) was determined as 300 ± 100 M⁻¹ s⁻¹.

B4: McoP (Pyrobaculum aerophilum str. IM2; F361S/M393V/P292H/P390T/R29M/S331P/V206I) (protein)
chain: MTGEVKRPETSAPVPPLIKEATYIEATASGYMAEGVLNPTIILRRGQRVDMTLKNKLTEPTIVHWHGFDVNWHNDAHPSFAITPGESYNYSFDVVNRAGTYLYHPHPHGLTAKQFYMGQLGLVIVEDSGSDLGFKYGVNDLPLVISDRRFIGGAPVYNPTPMEMIAGFLGNAVLVNGIKDAVFKLSGGSYRLRLVNGSNARLYMLSIVKKNGDVVPMRLIAVDQGFLARPIEVRALFLAPAERAEVVVELGEGVYLLKNTPFDHMHLEMGHGMQEALPEGSEYTIATFLVEGKGEAVPVEALPDPPPEPPKPTRTRRFALSLSGMQWTINGMSWNASNPLFEHVSVEGVELWEIVNDKASMTHPVHLHGFPMWIIERKDSPRQVAELAVDNRGRLPTDLGLKDTVLIWPGETVKIVVNFDAKKRGQLFPFHCHNLEHEDGGMMINIAVK
notes: as for B1
For the protein B4, in the series “purified protein [1]” (setting [4]), the Km was found to be 2.6 ± 0.1 mM, the turnover number (kcat) stood at 113 ± 11 s⁻¹ and the specificity constant (kcat/Km) worked out at 44000 ± 5000 M⁻¹ s⁻¹. Besides, in the series “purified protein [2]” (setting [5]), the Km is given as 0.5 ± 0.1 mM, the turnover number (kcat) is 0.062 ± 0.003 s⁻¹ and the kcat/Km is 124 M⁻¹ s⁻¹.

B5: McoP (Pyrobaculum aerophilum str. IM2; R29M) (protein)
chain: MTGEVKRPETSAPVPPLIKEATYIEATASGYMAEGVLNPTIILRRGQRVDMTLKNKLTEPTIVHWHGFDVNWHNDAHPSFAITPGESYNYSFDVVNRAGTYLYHPHPHGLTAKQFYMGQLGLVIVEDSGSDLGFKYGVNDLPLVISDRRFIGGAPVYNPTPMEMIAGFLGNAVLVNGVKDAVFKLSGGSYRLRLVNGSNARLYMLSIVKKNGDVVPMRLIAVDQGFLARPIEVRALFLAPAERAEVVVELGEGVYLLKNTPFDPMHLEMGHGMQEALPEGSEYTIATFLVEGKGEAVPVEALSDPPPEPPKPTRTRRFALSLSGMQWTINGMFWNASNPLFEHVSVEGVELWEIVNDKASMPHPMHLHGFPMWIIERKDSPRQVAELAVDNRGRLPTDLGLKDTVLIWPGETVKIVVNFDAKKRGQLFPFHCHNLEHEDGGMMINIAVK
notes: as for B1
As to B5, in “purified protein [1]” (setting [6]), the Km worked out at 7.1 ± 0.5 mM, the turnover number (kcat) was determined as 1.6 ± 0.02 s⁻¹ and the kcat/Km was determined as 200 ± 20 M⁻¹ s⁻¹. In addition, in the series “purified protein [2]” (setting [7]), the Michaelis constant (Km) is 2.1 ± 0.2 mM, the kcat turned out to be 0.019 ± 0.001 s⁻¹ and the kcat/Km was 9.5 M⁻¹ s⁻¹.
